These results are taken from publication PMC6833485.

This data set concerns the target thrombin (Homo sapiens, UniProt P00734;P00734 328-363;364-622). Description: reflectometric interference spectroscopy (RIfS), immobilized aptamer; PBS + MgCl2; sigmoidal fit of dEOT; Binding buffer PBS + MgCl2 (concentration, pH not given); TBA preheated 95 °C 5 min, cooled to room temperature; flow cell, assay temperature not stated.

B1: TBA 15-mer (5'-biotin) (structured_DNA)
DNA: GGTTGGTGTGGTTGG
modifications: 5'-biotin
For B1, the Kd was found to be 900 nM.
